# Source: PMC12914668
# Key:
# Assay in all cases: fluorescence polarisation; fluorescence anisotropy; 5 nM OG488-labelled histone monomer held constant, ligase complex titrated; 20 mM Tris-HCl pH 7.5, 10 mM NaCl, 5% glycerol, 1 mM DTT; 25 °C, 1 to 2.5 h; BSA-coated black 96-well plates
# [1] = molecular target: Xenopus laevis histone H3, Oregon Green 488 labelled at C110 (Xenopus laevis) (UniProt P84233)
# [2] = molecular target: Xenopus laevis histone H2A K119C, Oregon Green 488 labelled (Xenopus laevis)
# [3] = molecular target: Xenopus laevis histone H4 V22C, Oregon Green 488 labelled (Xenopus laevis) (UniProt P62799)
Kd [1],Kd [2],Kd [3],Substance
187 nM,341 nM,79.7 nM,"ASB9-ELOB/C-CUL5-RBX2 (ASB9-CRL5), not neddylated (from UniProt Q96DX5 1-294; Q15370 1-118; Q15369 1-112; Q93034 1-780; Q9UBF6 1-113) (complex)"
78.2 nM,,48.4 nM,NEDD8-ASB9-ELOB/C-CUL5-RBX2 (neddylated ASB9-CRL5) (from UniProt Q96DX5 1-294; Q15370 1-118; Q15369 1-112; Q93034 1-780; Q9UBF6 1-113; Q15843 1-76) (complex)
